Test results published in patent US20060003434.

Test system: T1, FLAG-Heme1B (human Eme1B, FLAG tagged at the C terminus)
T1 sequence: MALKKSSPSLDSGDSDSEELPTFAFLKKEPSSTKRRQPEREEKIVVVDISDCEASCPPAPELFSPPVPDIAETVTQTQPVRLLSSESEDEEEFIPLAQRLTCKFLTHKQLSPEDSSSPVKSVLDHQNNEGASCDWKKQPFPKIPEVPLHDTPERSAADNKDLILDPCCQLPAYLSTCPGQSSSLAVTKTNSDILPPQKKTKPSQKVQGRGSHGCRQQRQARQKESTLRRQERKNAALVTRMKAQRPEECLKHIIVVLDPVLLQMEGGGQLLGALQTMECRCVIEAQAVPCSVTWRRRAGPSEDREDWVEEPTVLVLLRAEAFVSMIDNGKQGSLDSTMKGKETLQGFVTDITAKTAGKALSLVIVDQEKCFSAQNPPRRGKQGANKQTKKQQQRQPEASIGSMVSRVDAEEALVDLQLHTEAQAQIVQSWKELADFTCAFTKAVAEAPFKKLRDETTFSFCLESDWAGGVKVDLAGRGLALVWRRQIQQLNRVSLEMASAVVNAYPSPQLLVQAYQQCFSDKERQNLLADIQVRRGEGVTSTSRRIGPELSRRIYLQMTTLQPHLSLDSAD

In the case of “3HaMus81 (triple hemagglutinin (3Ha) tagged Hmus81), wild type”, the “endonuclease activity of immune-precipitates on a 3' flap substrate” value is reported as “The activity of 3HaMus81 was greatly increased in cells that had been co-transfected with FLAG-Eme1B”.
